Laboratory results as given in US20200040059A1.
Each block holds one binder with its values, some of them ahead of it.

Columns and labels:
[1] = target: human CD28, full-length, expressed on transfected Expi293 cells (human) (UniProt P10747); experiment: flow cytometry on CD28-expressing Expi293 cells
[2] = target: human ICOS as used for the 'ICOS OD' read-out of Table 14 (human); experiment: binding read as OD; format not described
[3] = target: T1, CD112R (full length, expressed on transfected cells) (human), Q6DKI7; experiment: flow cytometry, 20 nM; ratio to WT CD112 IgV-Fc; settings: remark: other sources report otherwise
T1 chain: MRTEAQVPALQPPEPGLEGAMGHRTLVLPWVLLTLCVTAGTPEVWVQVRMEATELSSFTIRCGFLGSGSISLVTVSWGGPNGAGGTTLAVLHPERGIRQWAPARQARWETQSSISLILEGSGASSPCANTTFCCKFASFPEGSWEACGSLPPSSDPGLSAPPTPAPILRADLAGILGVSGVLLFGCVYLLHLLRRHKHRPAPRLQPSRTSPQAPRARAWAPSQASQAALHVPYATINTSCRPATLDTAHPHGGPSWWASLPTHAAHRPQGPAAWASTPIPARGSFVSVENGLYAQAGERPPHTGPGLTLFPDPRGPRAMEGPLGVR

[4] = target: T1, CD112R (full length, expressed on …); experiment: flow cytometry on cells expressing the target, 20 nM; settings: remark: other sources report otherwise
TIGIT (human) [5] = target: T2, TIGIT (human) (UniProt Q495A1); experiment: flow cytometry, cells expressing target, 25 nM
T2 sequence: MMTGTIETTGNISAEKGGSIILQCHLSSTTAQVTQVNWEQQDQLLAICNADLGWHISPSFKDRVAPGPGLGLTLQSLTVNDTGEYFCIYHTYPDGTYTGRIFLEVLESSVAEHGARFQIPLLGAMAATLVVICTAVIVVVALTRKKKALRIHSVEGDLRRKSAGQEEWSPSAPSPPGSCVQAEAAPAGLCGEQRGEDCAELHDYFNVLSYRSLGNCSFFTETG

CD226 (human) [6] = target: T3, CD226 (human) (UniProt Q15762); experiment: flow cytometry, cells expressing target, 25 nM
T3 sequence: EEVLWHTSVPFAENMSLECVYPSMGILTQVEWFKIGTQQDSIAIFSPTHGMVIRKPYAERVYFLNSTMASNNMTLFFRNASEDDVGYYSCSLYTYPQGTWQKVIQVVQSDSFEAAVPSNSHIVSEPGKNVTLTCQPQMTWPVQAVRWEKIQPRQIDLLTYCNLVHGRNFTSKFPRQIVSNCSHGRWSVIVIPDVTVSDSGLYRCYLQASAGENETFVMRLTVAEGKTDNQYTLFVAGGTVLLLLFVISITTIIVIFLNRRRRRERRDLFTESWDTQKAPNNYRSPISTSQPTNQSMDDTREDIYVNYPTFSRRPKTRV

CD112R (human) = CD112R (human) (UniProt Q6DKI7); experiment: flow cytometry, cells expressing target, 25 nM
CD96 [7] = target: T4, CD96 (UniProt P40200); experiment: flow cytometry, cells expressing target, 25 nM
T4 sequence (looked up): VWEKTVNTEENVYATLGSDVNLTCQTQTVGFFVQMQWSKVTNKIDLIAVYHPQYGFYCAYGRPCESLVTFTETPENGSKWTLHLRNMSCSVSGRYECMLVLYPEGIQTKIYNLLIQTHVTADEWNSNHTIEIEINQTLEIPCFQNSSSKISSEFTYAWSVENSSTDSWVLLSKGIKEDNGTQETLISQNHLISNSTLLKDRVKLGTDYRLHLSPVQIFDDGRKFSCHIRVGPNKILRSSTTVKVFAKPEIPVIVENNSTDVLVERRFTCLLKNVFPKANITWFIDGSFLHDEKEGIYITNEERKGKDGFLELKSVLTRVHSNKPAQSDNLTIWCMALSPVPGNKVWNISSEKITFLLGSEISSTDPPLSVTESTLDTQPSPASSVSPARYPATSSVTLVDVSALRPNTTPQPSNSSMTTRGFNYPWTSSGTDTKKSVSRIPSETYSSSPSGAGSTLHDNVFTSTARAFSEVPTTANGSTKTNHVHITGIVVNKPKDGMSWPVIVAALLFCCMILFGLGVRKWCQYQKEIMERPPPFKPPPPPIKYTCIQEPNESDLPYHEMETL

[8] = target: CD112R, expressed on transfected cells (human) (UniProt Q6DKI7); experiment: flow cytometry on transfected cells
[9] = target: CD96, expressed on transfected cells (UniProt P40200); experiment: flow cytometry on transfected cells
[10] = target: T5, human TIGIT, full length, expressed on transfected cells (human) (UniProt Q495A1); experiment: flow cytometry on transfected cells
T5 sequence: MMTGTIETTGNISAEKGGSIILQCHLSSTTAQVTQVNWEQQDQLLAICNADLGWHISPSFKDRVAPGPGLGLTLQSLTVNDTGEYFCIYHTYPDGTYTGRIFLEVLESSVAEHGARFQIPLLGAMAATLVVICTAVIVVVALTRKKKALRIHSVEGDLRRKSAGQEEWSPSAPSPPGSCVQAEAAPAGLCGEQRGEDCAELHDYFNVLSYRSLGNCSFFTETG

TIGIT (human) [11] = target: T2, TIGIT (human); experiment: flow cytometry, TIGIT-expressing cells
CD96 [12] = target: T4, CD96; experiment: flow cytometry, cells
TIGIT (human) [13] = target: T2, TIGIT (human); experiment: flow cytometry, transfected cells
CD226 (human) [14] = target: T3, CD226 (human); experiment: flow cytometry, transfected cells

Chain of human ICOS as used for the 'ICOS OD' read-out of Table 14 (human) (Q9Y6W8 whole entry): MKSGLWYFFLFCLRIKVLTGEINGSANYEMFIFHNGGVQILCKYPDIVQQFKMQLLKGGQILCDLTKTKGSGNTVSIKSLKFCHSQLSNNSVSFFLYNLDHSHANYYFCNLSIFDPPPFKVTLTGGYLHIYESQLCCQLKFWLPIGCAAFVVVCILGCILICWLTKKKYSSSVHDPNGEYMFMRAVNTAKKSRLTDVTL

MFI [1]: 54 MFI
MFI parental ratio (ratio to WT ICOSL ECD-Fc) [1]: 3
ICOS OD parental ratio (ratio to WT ICOSL ECD-Fc) [2]: 1.76
B1: ICOSL variant N52S/T113E ECD-Fc fusion (Fc fusion, UniProt O75144 19-256 with N52S T113E, looked up, part only)
extracellular domain: DTQEKEVRAMVGSDVELSCACPEGSRFDLNDVYVYWQTSESKTVVTYHIPQSSSLENVDSRYRNRALMSPAGMLRGDFSLRLFNVTPQDEQKFHCLVLSQSLGFQEVLSVEVELHVAANFSVPVVSAPHSPSQDELTFTCTSINGYPRPNVYWINKTDNSLLDQALQNDTVFLNMRGLYDVVSVLRIARTPSVNIGCCIENVLLQQNLTVGSQTGNDIGERDKITENPVSTGEKNAAT
modifications: extracellular domain human IgG1 Fc fusion

MFI [1]: 16 MFI
B2: ICOSL variant F120S/Y152H/N201S ECD-Fc fusion (Fc fusion, not shown: a dimerising Fc or GST; small tags and cut ends)
chain: DTQEKEVRAMVGSDVELSCACPEGSRFDLNDVYVYWQTSESKTVVTYHIPQNSSLENVDSRYRNRALMSPAGMLRGDFSLRLFNVTPQDEQKFHCLVLSQSLGFQEVLSVEVTLHVAANSSVPVVSAPHSPSQDELTFTCTSINGYPRPNVHWINKTDNSLLDQALQNDTVFLNMRGLYDVVSVLRIARTPSVNIGCCIESVLLQQNLTVGSQTGNDIGERDKITENPVSTGEKNAAT

Fold Increase to WT IgV [3]: 0.75 fold
MFI at 20 nM [4]: 1250
B3: WT CD112-Fc ECD, Q92692 32-360 (Fc fusion, not shown: a dimerising Fc or GST; small tags and cut ends)
chain: QDVRVQVLPEVRGQLGGTVELPCHLLPPVPGLYISLVTWQRPDAPANHQNVAAFHPKMGPSFPSPKPGSERLSFVSAKQSTGQDTEAELQDATLALHGLTVEDEGNYTCEFATFPKGSVRGMTWLRVIAKPKNQAEAQKVTFSQDPTTVALCISKEGRPPARISWLSSLDWEAKETQVSGTLAGTVTVTSRFTLVPSGRADGVTVTCKVEHESFEEPALIPVTLSVRYPPEVSISGYDDNWYLGRTDATLSCDVRSNPEPTGYDWSTTSGTFPTSAVAQGSQLVIHAVDSLFNTTFVCTVTNAVGMGRAEQVIFVRETPNTAGAGATGG

MFI at 25 nM (TIGIT (human) [5]): 130000 MFI
MFI at 25 nM (CD226 (human) [6]): 154000 MFI
MFI at 25 nM (CD112R (human)): 812 MFI
MFI at 25 nM (CD96 [7]): 85600 MFI
B4: CD155 variant IgV-Fc V9L, P18F, T45A, S65A, S67V, R78K, L79V, F91S, T107M, S114T (Fc fusion, not shown: a dimerising Fc or GST; small tags and cut ends)
chain: PGTGDLVVQAPTQVFGFLGDSVTLPCYLQVPNMEVTHVSQLAWARHGESGSMAVFHQTQGPAYVESKRLEFVAAKVGAELRNASLRMSGLRVEDEGNYTCLFVMFPQGSRTVDIWL

MFI at 100 nM [8]: 2600
MFI at 100 nM [9]: 6310
MFI at 100 nM [10]: 79500
B5: CD155 variant T45Q, S52M, L104E IgV-Fc (Fc fusion, not shown: a dimerising Fc or GST; small tags and cut ends)
chain: PGTGDVVVQAPTQVPGFLGDSVTLPCYLQVPNMEVTHVSQLQWARHGEMGSMAVFHQTQGPSYSESKRLEFVAARLGAELRNASLRMFGLRVEDEGNYTCEFVTFPQGSRSVDIWL

MFI at 100 nM (TIGIT (human) [11]): 14100 MFI
B6: CD155 variant IgV-Fc P18S, S42G, T45V, F58L, S67W, L104N (Fc fusion, not shown: a dimerising Fc or GST; large carriers; small tags and cut ends)
chain: PGTGDVVVQAPTQVSGFLGDSVTLPCYLQVPNMEVTHVGQLVWARHGESGSMAVLHQTQGPSYWESKRLEFVAARLGAELRNASLRMFGLRVEDEGNYTCNFVTFPQGSRSVDIWL

MFI at 25 nM (TIGIT (human) [5]): 131000 MFI
MFI at 25 nM (CD226 (human) [6]): 79400 MFI
MFI at 25 nM (CD112R (human)): 1010 MFI
MFI at 25 nM (CD96 [7]): 44500 MFI
B7: CD155 variant IgV-Fc P18S, H59R, A76G, R78S, L79P (Fc fusion, not shown: a dimerising Fc or GST; large carriers; small tags and cut ends)
chain: PGTGDVVVQAPTQVSGFLGDSVTLPCYLQVPNMEVTHVSQLTWARHGESGSMAVFRQTQGPSYSESKRLEFVGASPGAELRNASLRMFGLRVEDEGNYTCLFVTFPQGSRSVDIWL

MFI (CD96 [12]): 7910
MFI (TIGIT (human) [13]): 13000
MFI (CD226 (human) [14]): 12900
B8: CD155 G7E, P18T, Y30C, F91S IgV-Fc (Fc fusion, not shown: a dimerising Fc or GST; small tags and cut ends)
chain: PGTEDVVVQAPTQVTGFLGDSVTLPCCLQVPNMEVTHVSQLTWARHGESGSMAVFHQTQGPSYSESKRLEFVAARLGAELRNASLRMSGLRVEDEGNYTCLFVTFPQGSRSVDIWL

MFI at 100 nM [8]: 2620
MFI at 100 nM [9]: 3750
MFI at 100 nM [10]: 122000
B9: CD155 variant T45Q, S52R, L104E IgV-Fc (Fc fusion, not shown: a dimerising Fc or GST; small tags and cut ends)
chain: PGTGDVVVQAPTQVPGFLGDSVTLPCYLQVPNMEVTHVSQLQWARHGERGSMAVFHQTQGPSYSESKRLEFVAARLGAELRNASLRMFGLRVEDEGNYTCEFVTFPQGSRSVDIWL

MFI at 25 nM (TIGIT (human) [5]): 64100 MFI
MFI at 25 nM (CD226 (human) [6]): 30900 MFI
MFI at 25 nM (CD112R (human)): 874 MFI
MFI at 25 nM (CD96 [7]): 109000 MFI
B10: CD155 variant IgV-Fc P18T, D23G, Q60R, S67L, L79P, F91S, T107M, V115A (Fc fusion, not shown: a dimerising Fc or GST; small tags and cut ends)
chain: PGTGDVVVQAPTQVTGFLGGSVTLPCYLQVPNMEVTHVSQLTWARHGESGSMAVFHRTQGPSYLESKRLEFVAARPGAELRNASLRMSGLRVEDEGNYTCLFVMFPQGSRSADIWL

MFI at 25 nM (TIGIT (human) [5]): 187000 MFI
MFI at 25 nM (CD112R (human)): 908 MFI
MFI at 25 nM (CD96 [7]): 3790 MFI
B11: CD155 variant IgV-Fc P18T, S52A, V57A, Q60R, Q62K, S65C, L79P, F91T, N100Y, T107M (Fc fusion, not shown: a dimerising Fc or GST; large carriers; small tags and cut ends)
chain: PGTGDVVVQAPTQVTGFLGDSVTLPCYLQVPNMEVTHVSQLTWARHGEAGSMAAFHRTKGPCYSESKRLEFVAARPGAELRNASLRMTGLRVEDEGYYTCLFVMFPQGSRSVDIWL
